Changes are numbered by the printed parent chain.

A word on the EC50: it is the concentration that produces a half-maximal response. A higher EC50 goes with a less potent agent.

For assay [1], the target named is T1, OX40 chimera 1549: human OX40 with mouse domains 1A and 4B and non-annotated extracellular region (aa 30-65 … (human; mouse, UniProt P47741 26-61; P47741 125-211).
T1 construct: domain: 1A;domain: 4B and non-annotated extracellular region; Limits derived as for 1544
T1 sequence: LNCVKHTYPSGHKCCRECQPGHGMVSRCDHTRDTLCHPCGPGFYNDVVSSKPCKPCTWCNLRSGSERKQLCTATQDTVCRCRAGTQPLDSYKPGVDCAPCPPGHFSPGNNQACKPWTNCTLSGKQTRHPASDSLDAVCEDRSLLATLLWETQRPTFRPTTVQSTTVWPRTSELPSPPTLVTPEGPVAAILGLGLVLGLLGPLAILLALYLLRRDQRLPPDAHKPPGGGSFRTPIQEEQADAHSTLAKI
Briefly: flow cytometry, 293-F transfectants. How it is done: (§1) The mouse/human chimeras were transiently transfected into FreeStyle 293-F cells (Invitrogen), incubated 48 hours in FreeStyle 293 expression medium (Invitrogen) 37 C, 8% CO₂, 135 rpm. The transfected cells were incubated with human OX40 antibodies, human OX40L (hOX40L, RnD Systems), mouse OX40L (mOX40L, RnD Systems) and controls for 30 min 4° C. and then detected with a-huIgG-PE (Jackson Immunoresearch) 30 min 4° C. Cells were analyzed with FACS Verse (BD Biosciences). Binding to the different chimeric constructs were calculated as relative (mean fluorescence intensity) MFI compared to the binding of the isotype control.
In general terms: Flow cytometry measures light scatter and fluorescence of single cells or particles in a stream.

Assay [2] addresses T2, OX40 chimera 1548: human OX40 with mouse module 3 and domains 4A and 4B (aa 108-167), on FreeStyle 293-F cells (human; mouse, UniProt P47741 104-165).
T2 construct: domain: module 3, 4A and 4B; Limits derived as for 1544
T2 sequence: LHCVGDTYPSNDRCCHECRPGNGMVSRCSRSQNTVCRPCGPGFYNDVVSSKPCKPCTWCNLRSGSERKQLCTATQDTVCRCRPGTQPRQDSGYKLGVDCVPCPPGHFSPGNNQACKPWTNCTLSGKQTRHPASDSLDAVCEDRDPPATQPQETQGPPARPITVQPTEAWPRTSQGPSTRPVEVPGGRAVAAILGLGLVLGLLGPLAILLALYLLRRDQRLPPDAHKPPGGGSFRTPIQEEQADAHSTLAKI
Briefly: flow cytometry, 293-F transfectants. How it is done:
as §1

The target in another assay is T3, CD40 (Ancell) (UniProt P25942 21-193).
T3 construct: also called CD40-Fc (Ancell #504-820); not shown: Fc part, not described
Briefly: ELISA. In general terms: ELISA stands for enzyme-linked immunosorbent assay.

The target of another assay is T4, murine OX40 (murine, UniProt P47741 20-211, limits assumed).
T4 sequence (looked up): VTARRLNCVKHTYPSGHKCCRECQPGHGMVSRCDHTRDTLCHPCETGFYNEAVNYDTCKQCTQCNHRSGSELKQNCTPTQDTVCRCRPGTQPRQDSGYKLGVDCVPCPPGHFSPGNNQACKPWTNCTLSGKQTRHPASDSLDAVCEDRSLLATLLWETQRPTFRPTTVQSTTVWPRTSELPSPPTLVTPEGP
Nature of the assay: ELISA.

For assay [3], the target named is T5, recombinant human CD137-Fc (R&D #838-4B) (human, UniProt Q07011 24-186).
T5 construct: Bought; also called Human CD137 (R&D systems); CD137 (R&D Systems); not shown: Fc part, not described
Briefly: ELISA.

Assay [4] concerns the target extracellular part of OX40 from Macaca mulatta fused to the transmembrane and intracellular part of hCD40, on … (Macaca mulatta; human, UniProt A0A5F7ZKD5 21-541; P25942 194-277). Briefly: flow cytometry, macOX40-HEK cells; 95% confidence interval. The method, then:
For the assay, the transfected cells were incubated with the test antibodies and controls for 30 min at 4° C. and then detected with a-huIgG-PE (Jackson Immunoresearch) 30 min 4° C. Cells were analyzed by flow cytometry with FACS Verse (BD Biosciences).

In assay [5] the target is T6, CTLA4-Fc (Fitzgerald, #30R-CD152) (human, UniProt P16410 38-152).
T6 construct: Bought; also called human CTLA-4 (Fitzgerald); biotinylated-CTLA4; not shown: Fc part of the bought fusion, not described
Nature of the assay: ELISA on coated CTLA4-Fc and CD28-Fc. The method, then: 96-well flat bottom high binding plates (Greiner, #655074) were coated with either CTLA4-Fc (Fitzgerald, #30R-CD152) or CD28-Fc (R&D systems, 342-CD) by incubating overnight at 4° C. […] The plates were washed again and sample or controls (serially diluted ⅕ from 200-0.001 μg/ml) were added to the wells. The samples were incubated for 1 h at room temperature and then washed. Detection antibody, goat-anti-human IgG Fcγ-HRP (Jackson, #109-035-098) was added and the plates were subsequently developed using SuperSignal Pico Chemiluminescent substrate (Thermo Scientific, #37069) and detected with an Envision reader (Perkin Elmer). EC50 values were calculated for both CTLA4 and CD28. The binding ratio (EC50 binding ratio=[EC50 for CD28]÷[EC50 for CTLA-4]) was calculated for each polypeptide and is shown in Table 1.1.

Assay [6] addresses T6, CTLA4-Fc (Fitzgerald, #30R-CD152). Nature of the assay: SPR on immobilised CTLA4-Fc and CD28-Fc. How it is done: Either CTLA4-Fc (Fitzgerald, #30R-CD152) or CD28-Fc (R&D Systems, 342-CD) was immobilized to the Biacore™ sensor chip, CM5, using conventional amine coupling. The CD86 mutant molecules and controls (serially diluted ½ 100-1.5 nM) were analyzed for binding in HBS-P (GE, BR-1003-68) at a flow rate of […]. The association was followed for 3 minutes and the dissociation for 10 minutes. Regeneration was performed twice using 5 mM NaOH for 30 seconds. The kinetic parameters and the affinity constants were calculated using BIAevaluation 4.1 software (Table 1.3).

The target in assay [7] is T7, soluble murine CTLA-4 (R&D systems) (murine, UniProt P09793 36-162).
T7 construct: Bought
Nature of the assay: not described. How it is done: In brief, 96-well flat bottom plate high binding plates (Greiner #655074) were coated with human CTLA-4 (Fitzgerald) incubating overnight at 4° C.
The sample (exemplary CD86 mutant) was pre-incubated at room temperature for 1 hour with soluble biotinylated human CTLA4 (Fitzgerald #30R-CD152) or soluble murine CTLA-4 (R&D systems) at different concentrations (serial dilutions ¼ from 30000 to 0.3 ng/ml).
The mixture was then added to the blocked wells in the ELISA plate. Detection was performed with Streptavidin-HRP (Pierce, #21126) and the plates were subsequently developed using SuperSignal Pico Chemiluminescent substrate (Thermo Scientific, #37069) and detected with Envision reader (Perkin Elmer).

T6 sequence (P16410 38-152 limits assumed): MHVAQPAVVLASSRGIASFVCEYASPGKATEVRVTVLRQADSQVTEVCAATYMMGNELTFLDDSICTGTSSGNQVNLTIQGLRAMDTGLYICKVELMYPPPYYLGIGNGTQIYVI
T3 sequence (P25942 21-193 limits assumed): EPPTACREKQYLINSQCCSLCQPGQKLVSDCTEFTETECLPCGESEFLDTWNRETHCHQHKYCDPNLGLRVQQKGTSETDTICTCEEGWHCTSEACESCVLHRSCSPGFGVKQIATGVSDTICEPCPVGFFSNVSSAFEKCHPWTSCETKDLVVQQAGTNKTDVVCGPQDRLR
T5 sequence (Q07011 24-186 limits assumed): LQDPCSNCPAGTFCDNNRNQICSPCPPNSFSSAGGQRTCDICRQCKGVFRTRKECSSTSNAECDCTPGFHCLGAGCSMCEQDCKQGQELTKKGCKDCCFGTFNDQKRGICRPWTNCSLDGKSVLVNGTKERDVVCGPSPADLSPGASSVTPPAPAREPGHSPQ
extracellular part of OX40 from Macaca mulatta fused to the transmembrane and intracellular part of hCD40, on …, sequence (P25942 other isoform, or with tags, fused parts or gaps): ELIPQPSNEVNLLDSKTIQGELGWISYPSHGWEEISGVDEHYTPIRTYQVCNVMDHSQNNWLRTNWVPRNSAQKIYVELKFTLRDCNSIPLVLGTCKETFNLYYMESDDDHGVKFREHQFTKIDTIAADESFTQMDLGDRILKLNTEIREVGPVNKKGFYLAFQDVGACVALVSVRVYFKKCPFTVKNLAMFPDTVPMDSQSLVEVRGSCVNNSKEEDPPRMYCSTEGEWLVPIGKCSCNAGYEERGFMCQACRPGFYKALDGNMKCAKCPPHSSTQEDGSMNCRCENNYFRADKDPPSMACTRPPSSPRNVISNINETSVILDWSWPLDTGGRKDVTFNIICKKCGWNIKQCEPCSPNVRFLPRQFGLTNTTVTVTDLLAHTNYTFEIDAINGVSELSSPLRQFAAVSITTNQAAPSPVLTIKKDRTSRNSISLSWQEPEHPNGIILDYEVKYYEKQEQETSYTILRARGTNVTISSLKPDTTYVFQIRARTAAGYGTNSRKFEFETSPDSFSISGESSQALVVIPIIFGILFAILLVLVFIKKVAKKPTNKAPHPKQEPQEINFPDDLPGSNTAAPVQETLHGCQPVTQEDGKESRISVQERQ

B1: anti-OX40 antibody 1514/1515 (antibody, V domains shown)
VH: EVQLLESGGGLVQPGGSLRLSCAASGFTFGYYYMSWVRQAPGKGLEWVSGISSYGSYTYYADSVKGRFTISRDNSKNTLYLQMNSLRAEDTAVYYCARSGYSNWANSFDYWGQGTLVTVSS
VL: DIQMTQSPSSLSASVGDRVTITCRASQSISSYLNWYQQKPGKAPKLLIYAASSLQSGVPSRFSGSGSGTDFTLTISSLQPEDFATYYCQQGDYTLFTFGQGTKLEIK
notes: Tested as IgG
For the molecule B1, the “relative MFI vs isotype control” value came to 10.6 in assay [1] and 17.2 in [2]. The binding result (in the assay with CD40 (Ancell); in the assay with murine OX40; in [3]) was “no binding” throughout.

B2: anti-OX40 antibody 1166/1167 (antibody, V domains shown)
VH: EVQLLESGGGLVQPGGSLRLSCAASGFTFGGYYMSWVRQAPGKGLEWVSAISGSGGSTYYADSVKGRFTISRDNSKNTLYLQMNSLRAEDTAVYYCARYDYASMDYWGQGTLVTVSS
VL: DIQMTQSPSSLSASVGDRVTITCRASQSISSYLNWYQQKPGKAPKLLIYAASSLQSGVPSRFSGSGSGTDFTLTISSLQPEDFATYYCQQYYWYGLSTFGQGTKLEIK
notes: Tested as IgG
In turn, B2 had an EC50 in assay [4] of 0.16 to 0.242 µg/mL. Besides, the entries for the “relative MFI vs isotype control” value in assay [1] and in assay [2] were 11.3 and 15.8, respectively. Moreover, the binding result (with CD40 (Ancell); with murine OX40; in assay [3]) was “no binding” in each case.

B3: anti-OX40 antibody 1170/1171 (antibody, V domains shown)
VH: B2 VH with A50Y, S52P, A102Y, S103W
VL: B2 VL with Y91G, Y92H, W93G, Y94S, G95Y, L96P, S97H
notes: Tested as IgG
Consider B3, for which the figures for the “relative MFI vs isotype control” value in [1] and in assay [2] were 12.1 and 20.3, respectively. The binding result (in the assay with CD40 (Ancell); with murine OX40; in assay [3]) was “no binding” in each case.

B4: CD86 mutant 915 (ligand)
chain: LKIQAYFNETADLPCQFANSQNQSLSELVVFWQDQENLILNEVYLGKEKFDSVDSKYMGRTSFDSDSWTLRLHNLQIKDKGFYQCIIHHKKPSGLIKIHQMDSELSVLA
notes: Variant of the CD86 extracellular domain
Regarding B4, in assay [5], the “EC50 binding ratio ([EC50 for CD28]/[EC50 for CTLA-4])” value was 9.9. Besides, the “Kd binding ratio ([Kd for CD28]/[Kd for CTLA-4])” value in assay [6] is 1.9. For the same molecule, the binding result in assay [7] was “binds”.

B5: CD86 mutant 938 (ligand)
chain: B4 chain with D54H, F82I, S93T, L95M, I96V, D102N
notes: as for B4
Consider B5, for which the “EC50 binding ratio ([EC50 for CD28]/[EC50 for CTLA-4])” value in [5] was found to be 2. Moreover, the “Kd binding ratio ([Kd for CD28]/[Kd for CTLA-4])” value in assay [6] was determined as 5.5. For the same molecule, in assay [7], the binding result was “binds”.

(Values after patent publication US20210238298A1 (ALLIGATOR BIOSCIENCE, published 2021).)
